# B1: human CD73 (Homo sapiens; K145S/K147S/K478S/N311D/N333D/N403D/N53D/T376A) (protein)
# chain: WELTILHTNDVHSRLEQTSEDSSKCVDASRCMGGVARLFTKVQQIRRAEPNVLLLDAGDQYQGTIWFTVYKGAEVAHFMNALRYDAMALGNHEFDNGVEGLIEPLLKEAKFPILSANISASGPLASQISGLYLPYKVLPVGDEVVGIVGYTSKETPFLSNPGTNLVFEDEITALQPEVDKLKTLNVNKIIALGHSGFEMDKLIAQKVRGVDVVVGGHSNTFLYTGNPPSKEVPAGKYPFIVTSDDGRKVPVVQAYAFGKYLGYLKIEFDERGNVISSHGNPILLDSSIPEDPSIKADINKWRIKLDDYSTQELGKTIVYLDGSSQSCRFRECNMGNLICDAMINNNLRHADEMFWNHVSMCILNGGGIRSPIDERNDGTITWENLAAVLPFGGTFDLVQLKGSTLKKAFEHSVHRYGQSTGEFLQVGGIHVVYDLSRKPGDRVVKLDVLCTSCRVPSYDPLKMDEVYKVILPNFLANGGDGFQMIKDELLRHDSGDQDINVVSTYISKMKVIYPAVEGRIKFS
# notes: His6 (C); made in house
# Substrate: Nc1ncnc2c1ncn2[C@@H]1O[C@H](COP(=O)(O)O)[C@@H](O)[C@H]1O
# Test: purified protein, by the assay type
# Format: biochemical, human
# Settings: other: AMP 5-200 μM, 1.25 ng CD73; pH 7.5; 25.0 °C
# Protocol: In this study, enzyme activity and inhibition data was characterised using a modified malachite green assay. Each assay consisted of reaction buffer A (50 mM Tris–HCl pH 7.5, 100 mM NaCl, 1 mM MgCl2) to which the appropriate substrate and/or inhibitors (see Table S1) were added. Dissolved compounds were immediately used for the inhibition assays. The reactions were generally initiated by the addition of protein. The protein concentrations, substrates and inhibitors used for the various experiments are detailed below. In all experiments, reactions were monitored over a 10-min period during which samples were taken at regular intervals. At each desired time point, a malachite green/molybdate (1:1) solution was added to the sample, which simultaneously terminated the assay and also allowed the detection of the produced phosphate ions. These reaction mixtures were incubated at 25 °C for 25 min, followed by measurement of the absorbance at 620 nm. […]
# The specific activity (μmol Pi/min/mg protein) was calculated from the initial reaction rates and was used to determine when the protein refolding process had reached completion. […] Kinetic values were determined by fitting the Michaelis–Menten equation to the initial reaction rates using GraphPad Prism (GraphPad Software, La Jolla, CA, USA). […]
protein,measurement,value
B1,Km,10.5 µM
same,Vmax,301.2 U/mg

# From article PMC8677862, “Substrate binding modes of purine and pyrimidine nucleotides to human ecto-5′-nucleotidase (CD73) and inhibition by their bisphosphonic acid derivatives” (Purinergic Signalling, 2021)
